From patent US20140023715A1 (EMORY UNIVERSITY, published 2014)

Molecular target: T1, uPAR (species and form not stated)
T1 construct: also called uPA receptor
T1 sequence (Q03405 23-305): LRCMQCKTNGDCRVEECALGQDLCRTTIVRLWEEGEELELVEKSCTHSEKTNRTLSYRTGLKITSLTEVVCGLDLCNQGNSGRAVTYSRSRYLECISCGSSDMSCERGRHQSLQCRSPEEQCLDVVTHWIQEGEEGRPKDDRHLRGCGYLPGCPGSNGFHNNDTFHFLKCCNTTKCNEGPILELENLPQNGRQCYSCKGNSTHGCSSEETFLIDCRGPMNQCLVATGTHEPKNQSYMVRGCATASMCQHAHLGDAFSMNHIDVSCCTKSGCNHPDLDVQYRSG

- Kd: < 1 nM
B1: recombinant mouse amino terminal fragment (ATF, 135 aa) of uPA (ligand, UniProt P06869 21-155, looked up)
chain: GSVLGAPDESNCGCQNGGVCVSYKYFSRIRRCSCPRKFQGEHCEIDASKTCYHGNGDSYRGKANTDTKGRPCLAWNAPAVLQKPYNAHRPDAISLGLGKHNYCRNPDNQKRPWCYVQIGLRQFVQECMVHDCSLS
notes: range 1-135; 17 kDa, made in E. coli BL21; also called mouse ATF peptide; murine ATF; not shown: tag from vector pET101/D-TOPO (purified on Ni-NTA)
